# Results reported in patent publication US7786356B2, “Method for the production of calendic acid, a fatty acid containing delta 8,10,12 conjugated double bonds and related fatty acids having a modification at the delta 9 position” (E.I. du Pont de Nemours and Company, priority 1999, dated 2010).
# System: tobacco callus
# Experiment: Expression of CalFad2-1 in tobacco callus, GC/GC-MS of fatty acid methyl esters
# Assay type: cell-based, Nicotiana tabacum cv. Xanthi
# Settings: stably transformed tobacco callus, 35S promoter
# Source text: To characterize the activity of the CalFad2-1 in transgenic plant cells, the cDNA (ecs1c.pk009.n14) encoding this enzyme was expressed in tobacco callus with the gene under control of the cauliflower mosaic virus 35S promoter. The open-reading frame of the cDNA for CalFad2-1 was amplified by PCR to generate flanking […] restriction enzyme sites for cloning into the plant expression vector. The sequence of the sense oligonucleotide used in the amplification reaction was 5′-tttgagctc[…]-3′ (SEQ ID NO:16), and the sequence of the antisense oligonucleotide was 5′-tttggatcc[…]-3′ (SEQ ID NO: 17) [Note: the bases in lower case contain the added restriction sites, which are underlined, and flanking sequence to facilitate restriction enzyme digestion]. The design of the PCR primers was based on the sequence of the CalFad2-1 cDNA shown in SEQ ID NO:1. […]
# Kanamycin-resistant tobacco callus that resulted from the transformation was examined for the presence of calendic acid arising from the activity of CalFad2-1. […] The recovered fatty acid methyl esters were then analyzed using a Hewlett-Packard 6890 chromatograph fitted with an Omegawax 320 column (30 m×0.32 mm inner diameter; Supelco). […] Fatty acid methyl prepared from the transgenic tobacco callus was analyzed with an HP6890 interfaced with a HP5973 (Hewlett-Packard) mass selective detector. […]
molecule,measurement,value
"CalFad2-1: Calendula officinalis fatty acid modifying enzyme (cDNA SEQ ID NO:1, protein SEQ ID NO:2) forming conjugated double bonds at delta-9 position (protein, listed as Calendula officinalis) MGKGASNKKVLERVPITKPPFEYNDLKKAVPPHCFSRPLFRSFYFLLHDIIVTCILFYVASNYIPMLPGFLSYIVWPVYWISQGVFLGRLWMIGHECGHHSFSNYRWVDDSVGFLIHTATLTPYFSFKYSHRNHHAHTNSMEYDEVHIPKRKSEALDLYFEFLGNNPMGLMITMLCKLTFGYAAYIMFNYTGKKHKSGGLASHFYPQSPLFNDSERNHVLFSDVGICIVLYACYRIVMVTGAMSAFYVYGIPWVIMSAILFAATYLQHTHPSIPHYDTTEWNWLRGALSTIDRDLGFFNMNKTHYHVIHHLFPVIPEYHAQEATEAIKPILGQYYKYDGTPFLKALWREMKDCIYVESDQGQKKQGIYWFKNKI","methyl calendic acid, amount of the total fatty acids",up to 11.4 % of the total fatty acids
